From the RNAGym collection of RNA variant scans (doi:10.1021/acssynbio.7b00057)

B1: Pistol ribozyme (parent)
chain: GGGUCGUUGUUCCAUAAUCGCGUGGAUAUGGCACGCAAGUUUCUACCGGGCACCGUAAAUGUCCGACUGGAGCCGUUCGGGCGGCUAUAAACAGACCUCAGGCCCGAAGCGUGGCGGCACCUGCCGCCGGUGGUAAAAAAGAUCGGAAGAGCACACGUCU

Variants of: B1
Test: aptazyme ON/OFF ratio, guanine; higher = stronger switching; co-transcriptional cleavage with and without guanine

Variant | aptazyme ON/OFF ratio
U7C U8A G9A U10G U11C C12G C13G | 1.21
U7C U8A G9C U11C C12G C13U | 1.1
U7C U8A G9C U11C C12G C13A | 1.07
U7C U8A G9C U11C C12G C13G | 1.12
U7C U8A G9A U10G U11C C12A | 1.2
U7C U8A G9A U10G U11C C12U | 1.07
U7C U8A G9A U10G U11C C12G | 1.21
U7C U8A G9C U10C U11C C13A | 1.01
U7C U8A G9C U10C U11C C13G | 1
U7C U8A G9C U10C U11C C13U | 1.03
U7C U8A G9C U10C U11C C12U C13G | 1.03
U7C U8A G9C U10C U11C C12U C13A | 1.03
U7C U8A G9C U10C U11C C12U C13U | 1.02
U7C U8A G9A U11C C13G | 1.02
U7C U8A G9A U11C C13U | 1.05
U7C U8A G9A U11C C13A | 1.04
U7C U8A G9A U11C C12A C13U | 1.28
U7C U8A G9A U11C C12A C13A | 1.15
U7C U8A G9A U11C C12A C13G | 1.15
U7C U8A G9C U10G U11A C12A C13A | 1.17
U7C U8A G9C U10G U11A C12A C13G | 1.13
U7C U8A G9C U10G U11A C12A C13U | 1.33
U7C U8A G9C U10A U11A C12G C13U | 1.16
U7C U8A G9C U10A U11A C12G C13A | 1.1

Variant | aptazyme ON/OFF ratio
U7C U8A G9C U10A U11A C12G C13G | 1.12
U7C U8A G9C U10A U11C C12U | 1.08
U7C U8A G9C U10A U11C C12A | 1.28
U7C U8A G9C U10A U11C C12G | 1.2
U7C U8A G9C U10C U11C | 1.01
U7C U8A G9C U10C U11A | 0.786
U7C U8A G9C U10C U11G | 0.891
U7C U8A G9C U10G C12U C13U | 1.26
U7C U8A G9C U10G C12U C13A | 1.18
U7C U8A G9C U10G C12U C13G | 1.17
U7C U8A G9C U10C U11A C12U C13U | 1.04
U7C U8A G9C U10C U11A C12U C13G | 1.05
U7C U8A G9C U10C U11A C12U C13A | 1.04
U7C U8A G9C U10C U11A C13A | 1.09
U7C U8A G9C U10C U11A C13G | 1.2
U7C U8A G9C U10C U11A C13U | 1.13
U7C U8A G9C U10C U11A C12A C13A | 1.07
U7C U8A G9C U10C U11A C12A C13U | 1.04
U7C U8A G9C U10C U11A C12A C13G | 1.11
U7C U8A G9C U10A U11G C12U C13A | 1.1
U7C U8A G9C U10A U11G C12U C13G | 1.08
U7C U8A G9C U10A U11G C12U C13U | 1.13
U7C U8A G9C U10G U11G C12U C13G | 1.1
U7C U8A G9C U10G U11G C12U C13U | 1.09

Variant | aptazyme ON/OFF ratio
U7C U8A G9C U10G U11G C12U C13A | 1.12
U7C U8A G9C U10A U11G C12A | 1.06
U7C U8A G9C U10A U11G C12U | 1.21
U7C U8A G9C U10A U11G C12G | 1.31
U7C U8A G9A U10G U11C C12A C13A | 1.15
U7C U8A G9A U10G U11C C12A C13U | 1.18
U7C U8A G9A U10G U11C C12A C13G | 1.1
U7C U8A G9C U11G C12U | 1.29
U7C U8A G9C U11G C12A | 1.06
U7C U8A G9C U11G C12G | 1.2
U7C U8A G9C U10A U11G C12G C13U | 1.1
U7C U8A G9C U10A U11G C12G C13A | 1.1
U7C U8A G9C U10A U11G C12G C13G | 1.15
U7C U8A G9C U10G U11C C12G | 1.18
U7C U8A G9C U10G U11C C12U | 1.24
U7C U8A G9C U10G U11C C12A | 1.29
U7C U8A G9C U10A U11A C13A | 1.2
U7C U8A G9C U10A U11A C13G | 1.15
U7C U8A G9C U10A U11A C13U | 1.19
U7C U8A G9C U10G C12A C13G | 1.09
U7C U8A G9C U10G C12A C13U | 1.13
U7C U8A G9C U10G C12A C13A | 1.23
U7C U8A G9C U10C U11C C12A C13U | 1.05
U7C U8A G9C U10C U11C C12A C13A | 1.04

Variant | aptazyme ON/OFF ratio
U7C U8A G9C U10C U11C C12A C13G | 1
U7C U8A G9C U10G U11A C12G C13A | 1.1
U7C U8A G9C U10G U11A C12G C13U | 1.13
U7C U8A G9C U10G U11A C12G C13G | 1.19
U7C U8A G9A U11A C12A | 1.2
U7C U8A G9A U11A C12G | 1.2
U7C U8A G9A U11A C12U | 1.25
U7C U8A G9C U10G U11A C12U C13G | 1.13
U7C U8A G9C U10G U11A C12U C13A | 1.16
U7C U8A G9C U10G U11A C12U C13U | 1.14
U7C U8A G9A U11C C12A | 1.23
U7C U8A G9A U11C C12U | 1.13
U7C U8A G9A U11C C12G | 1.16
U7C U8A G9A U10G U11G C12A C13A | 1.19
U7C U8A G9A U10G U11G C12A C13U | 1.23
U7C U8A G9A U10G U11G C12A C13G | 1.14
U7C U8A G9A U10G U11G C12G C13U | 1.2
U7C U8A G9A U10G U11G C12G C13G | 1.23
U7C U8A G9A U10G U11G C12G C13A | 1.21
U7C U8A G9A U11A C12G C13G | 1.19
U7C U8A G9A U11A C12G C13U | 1.19
U7C U8A G9A U11A C12G C13A | 1.15
U7C U8A G9C U10C C12A C13A | 1.05
U7C U8A G9C U10C C12A C13U | 1.06

Variant | aptazyme ON/OFF ratio
U7C U8A G9C U10C C12A C13G | 1.07
U7C U8A G9A U10G U11G C12A | 1.11
U7C U8A G9A U10G U11G C12G | 1.29
U7C U8A G9A U10G U11G C12U | 1.39
U7C U8A G9C U10A U11C C12A C13G | 1.14
U7C U8A G9C U10A U11C C12A C13A | 1.19
U7C U8A G9C U10A U11C C12A C13U | 1.15
U7C U8A G9C U10C U11G C13A | 1.1
U7C U8A G9C U10C U11G C13G | 1.06
U7C U8A G9C U10C U11G C13U | 1.16
U7C U8A G9C U10C U11G C12G C13A | 1.11
U7C U8A G9C U10C U11G C12G C13U | 1.07
U7C U8A G9C U10C U11G C12G C13G | 1.11
U7C U8A G9C U10C U11G C12U C13U | 1.1
U7C U8A G9C U10C U11G C12U C13G | 1.11
U7C U8A G9C U10C U11G C12U C13A | 1.05
U7C U8A G9C U10G U11C C12G C13U | 1.19
U7C U8A G9C U10G U11C C12G C13G | 1.23
U7C U8A G9C U10G U11C C12G C13A | 1.25
U7C U8A G9C C12G C13U | 1.09
U7C U8A G9C C12G C13G | 1.14
U7C U8A G9C C12G C13A | 1.14
U7C U8A G9A U10G U11C C13G | 1.05
U7C U8A G9A U10G U11C C13U | 1

Variant | aptazyme ON/OFF ratio
U7C U8A G9A U10G U11C C13A | 1.05
U7C U8A G9C U10G U11G C13A | 1.13
U7C U8A G9C U10G U11G C13U | 1.14
U7C U8A G9C U10G U11G C13G | 1.11
U7C U8A G9C U10A U11A C12U C13A | 1.05
U7C U8A G9C U10A U11A C12U C13U | 1.11
U7C U8A G9C U10A U11A C12U C13G | 1.1
U7C U8A G9C U10A C13U | 1.24
U7C U8A G9C U10A C13A | 1.17
U7C U8A G9C U10A C13G | 1.07
U7C U8A G9C U10A U11A C12A C13G | 1.12
U7C U8A G9C U10A U11A C12A C13U | 1.2
U7C U8A G9C U10A U11A C12A C13A | 1.19
U7C U8A G9A U11A C12A C13G | 1.22
U7C U8A G9A U11A C12A C13U | 1.08
U7C U8A G9A U11A C12A C13A | 1.17
U7C U8A G9C U11A C12A C13G | 1.08
U7C U8A G9C U11A C12A C13A | 1.11
U7C U8A G9C U11A C12A C13U | 1.15
U7C U8A G9A U11C C12U C13A | 1.17
U7C U8A G9A U11C C12U C13U | 1.2
U7C U8A G9A U11C C12U C13G | 1.09
U7C U8A G9C U10C U11C C12U | 1.02
U7C U8A G9C U10C U11C C12G | 1.04

Variant | aptazyme ON/OFF ratio
U7C U8A G9C U10C U11C C12A | 1.06
U7C U8A G9A U11C | 1.06
U7C U8A G9A U11A | 1.17
U7C U8A G9A U11G | 1.09
U7C U8A G9C U10A U11G C13G | 1.02
U7C U8A G9C U10A U11G C13U | 1.16
U7C U8A G9C U10A U11G C13A | 1.12
U7C U8A G9C U10A U11C C13G | 1.05
U7C U8A G9C U10A U11C C13A | 1.06
U7C U8A G9C U10A U11C C13U | 1.02
U7C U8A G9C U10G U11A | 1.05
U7C U8A G9C U10G U11G | 1.1
U7C U8A G9C U10G U11C | 1.1
U7C U8A G9C C12U C13G | 1.07
U7C U8A G9C C12U C13U | 1.19
U7C U8A G9C C12U C13A | 1.12
U7C U8A G9C U11G C13A | 1.07
U7C U8A G9C U10C C12U C13A | 1.06
U7C U8A G9C U10C C12U C13G | 1.06
U7C U8A G9C U10C C12U C13U | 1.05
U7C U8A G9A U11G C12G C13G | 1.12
U7C U8A G9A U11G C12G C13U | 1.13
U7C U8A G9A U11G C12G C13A | 1.12
